# Reference: article PMC9935389, “Structural insights into the regulation of Cas7-11 by TPR-CHAT”
# Target: DmCas7-11;DmTPR-CHAT full-length (Desulfonema magnum;Desulfonema magnum, UniProt A0A975GRY4;A0A975BRS1 1-1785;1-822, |)
# Assay: cryo-EM; Craspase complex with full TPR-CHAT, 3.2 A; PDB 7ZOL or 7ZOQ (assignment not stated); EMSA: 32.5 mM HEPES-NaOH pH 7.5, 100 mM NaCl, 2.5 mM DTT, 1 U/ul RNase inhibitor, 50 nM RNA, 30 min on ice; no Mg2+ listed
# Settings: protein: recombinant;recombinant; tags: 6xHis (N-terminal);Twin-Strep (N-terminal); copies: 1;1; single strand
# Sequence of DmCas7-11;DmTPR-CHAT full-length (chain, as listed by the source |, chain 1 of 2): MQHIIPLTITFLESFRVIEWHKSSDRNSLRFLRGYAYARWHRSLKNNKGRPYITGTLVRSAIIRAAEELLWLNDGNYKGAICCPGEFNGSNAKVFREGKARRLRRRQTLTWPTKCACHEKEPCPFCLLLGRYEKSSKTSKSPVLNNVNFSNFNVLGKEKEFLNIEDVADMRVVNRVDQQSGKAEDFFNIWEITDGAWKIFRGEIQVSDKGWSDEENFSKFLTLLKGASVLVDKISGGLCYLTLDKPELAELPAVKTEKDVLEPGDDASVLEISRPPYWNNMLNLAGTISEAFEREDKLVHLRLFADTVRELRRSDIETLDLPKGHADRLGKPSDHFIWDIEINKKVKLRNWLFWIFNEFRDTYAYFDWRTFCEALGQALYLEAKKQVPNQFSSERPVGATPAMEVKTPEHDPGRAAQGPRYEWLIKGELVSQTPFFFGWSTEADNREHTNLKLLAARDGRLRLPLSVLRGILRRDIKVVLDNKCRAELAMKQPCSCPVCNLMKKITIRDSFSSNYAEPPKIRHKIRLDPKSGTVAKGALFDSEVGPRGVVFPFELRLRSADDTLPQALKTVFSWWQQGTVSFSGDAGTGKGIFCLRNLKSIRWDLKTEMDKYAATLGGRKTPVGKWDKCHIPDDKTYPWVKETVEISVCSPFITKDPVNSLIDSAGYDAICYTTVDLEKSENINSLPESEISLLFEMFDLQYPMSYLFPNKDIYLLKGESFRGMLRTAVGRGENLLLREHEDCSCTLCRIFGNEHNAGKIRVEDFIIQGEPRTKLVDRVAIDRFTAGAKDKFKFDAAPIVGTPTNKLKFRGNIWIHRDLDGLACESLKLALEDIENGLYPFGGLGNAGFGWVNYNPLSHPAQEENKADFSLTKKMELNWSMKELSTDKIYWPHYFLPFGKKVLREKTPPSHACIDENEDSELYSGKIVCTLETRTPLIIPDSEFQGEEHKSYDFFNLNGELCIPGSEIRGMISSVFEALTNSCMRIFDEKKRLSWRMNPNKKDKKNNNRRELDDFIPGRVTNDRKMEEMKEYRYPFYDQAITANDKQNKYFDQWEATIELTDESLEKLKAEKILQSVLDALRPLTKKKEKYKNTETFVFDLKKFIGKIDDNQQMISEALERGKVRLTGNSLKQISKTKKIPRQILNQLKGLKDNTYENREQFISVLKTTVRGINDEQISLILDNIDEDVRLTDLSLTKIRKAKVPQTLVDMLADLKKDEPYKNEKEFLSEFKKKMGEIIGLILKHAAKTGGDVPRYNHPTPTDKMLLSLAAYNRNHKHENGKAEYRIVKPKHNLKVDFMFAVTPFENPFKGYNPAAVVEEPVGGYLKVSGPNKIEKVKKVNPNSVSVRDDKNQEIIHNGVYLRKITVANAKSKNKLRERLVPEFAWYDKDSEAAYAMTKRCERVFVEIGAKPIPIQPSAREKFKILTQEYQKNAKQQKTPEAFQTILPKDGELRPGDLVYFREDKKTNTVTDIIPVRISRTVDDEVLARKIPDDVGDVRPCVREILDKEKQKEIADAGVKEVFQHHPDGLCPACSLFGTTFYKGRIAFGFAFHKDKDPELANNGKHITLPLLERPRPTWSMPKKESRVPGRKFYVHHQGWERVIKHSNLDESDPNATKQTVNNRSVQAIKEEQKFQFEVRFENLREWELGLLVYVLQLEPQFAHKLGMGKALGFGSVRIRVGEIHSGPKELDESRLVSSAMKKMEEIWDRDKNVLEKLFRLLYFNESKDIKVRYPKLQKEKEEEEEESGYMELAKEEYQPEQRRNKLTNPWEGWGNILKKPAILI
# Sequence of DmCas7-11;DmTPR-CHAT full-length (chain, as listed by the source |, chain 2 of 2): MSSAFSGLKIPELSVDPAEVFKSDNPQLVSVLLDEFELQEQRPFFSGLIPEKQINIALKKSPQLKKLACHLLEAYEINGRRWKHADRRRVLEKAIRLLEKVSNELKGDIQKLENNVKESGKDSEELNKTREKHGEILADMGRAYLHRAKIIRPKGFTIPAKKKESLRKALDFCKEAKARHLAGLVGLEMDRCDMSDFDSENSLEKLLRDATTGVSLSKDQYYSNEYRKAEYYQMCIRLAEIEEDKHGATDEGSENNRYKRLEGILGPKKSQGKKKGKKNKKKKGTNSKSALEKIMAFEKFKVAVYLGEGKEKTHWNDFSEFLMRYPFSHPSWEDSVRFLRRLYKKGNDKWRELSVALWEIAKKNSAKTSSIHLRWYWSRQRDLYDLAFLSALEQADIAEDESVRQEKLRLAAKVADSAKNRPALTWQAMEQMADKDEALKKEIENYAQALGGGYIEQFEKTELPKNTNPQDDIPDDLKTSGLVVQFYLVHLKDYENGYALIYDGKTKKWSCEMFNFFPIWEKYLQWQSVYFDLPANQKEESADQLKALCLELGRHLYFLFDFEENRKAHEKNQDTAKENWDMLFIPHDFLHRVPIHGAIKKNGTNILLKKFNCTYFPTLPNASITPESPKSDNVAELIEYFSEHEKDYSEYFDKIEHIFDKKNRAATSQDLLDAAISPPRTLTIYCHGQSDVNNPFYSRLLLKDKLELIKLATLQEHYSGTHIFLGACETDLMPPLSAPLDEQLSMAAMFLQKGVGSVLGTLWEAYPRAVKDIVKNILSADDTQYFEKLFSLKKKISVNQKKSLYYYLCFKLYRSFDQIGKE
binder,measurement,value
"UUAUGUGAUGGAACCUCUCCGGAUAAUUCUAUCUCUUCUG (ssRNA) [crRNA (13+ nt 5' handle, spacer C15-G40 modelled)]",binding result,binds
